Results taken from patent US20050048627A1.

Target: MMP-2 (UniProt P08253)
Assay: cell-based or functional assay

Sequence of UniProt P08253 (P08253 110-660 limits assumed): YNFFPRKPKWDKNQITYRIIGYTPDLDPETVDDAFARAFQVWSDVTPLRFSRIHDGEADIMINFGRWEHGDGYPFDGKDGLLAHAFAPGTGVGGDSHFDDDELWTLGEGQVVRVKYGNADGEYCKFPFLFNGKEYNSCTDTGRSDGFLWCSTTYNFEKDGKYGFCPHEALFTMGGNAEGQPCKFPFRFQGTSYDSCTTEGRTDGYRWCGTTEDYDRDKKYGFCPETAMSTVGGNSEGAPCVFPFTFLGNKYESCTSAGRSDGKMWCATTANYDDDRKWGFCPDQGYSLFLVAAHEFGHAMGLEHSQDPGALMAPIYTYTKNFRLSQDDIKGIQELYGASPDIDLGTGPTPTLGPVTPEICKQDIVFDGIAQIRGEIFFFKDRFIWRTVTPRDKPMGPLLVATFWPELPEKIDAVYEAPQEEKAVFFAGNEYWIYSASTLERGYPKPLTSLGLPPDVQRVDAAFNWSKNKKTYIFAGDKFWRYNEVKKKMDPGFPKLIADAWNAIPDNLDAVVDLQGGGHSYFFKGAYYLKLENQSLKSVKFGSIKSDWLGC

## human serum albumin-TIMP2 fusion protein
  inhibition of MMP-2 activity (spectrofluorometric assay, 10 nM MMP-2, 10 µM MCA-Pro-Leu-Gly-Leu-Dap(Dnp)-Ala-Arg-NH2 substrate) at 7.5 µg/ml HSA-TIMP2: 37%
  inhibition of MMP-2 activity (spectrofluorometric assay, 10 nM MMP-2, 10 µM MCA-Pro-Leu-Gly-Leu-Dap(Dnp)-Ala-Arg-NH2 substrate) at 15 µg/ml HSA-TIMP2: 55%
